Each block holds one substance with its values, some of them ahead of it.
Columns and labels:
[1] = molecular target: PD-L1 (human) (UniProt Q9NZQ7); experiment: flow cytometry, CHO cells expressing huPD-L1
Target sequence in this assay (Q9NZQ7 19-290): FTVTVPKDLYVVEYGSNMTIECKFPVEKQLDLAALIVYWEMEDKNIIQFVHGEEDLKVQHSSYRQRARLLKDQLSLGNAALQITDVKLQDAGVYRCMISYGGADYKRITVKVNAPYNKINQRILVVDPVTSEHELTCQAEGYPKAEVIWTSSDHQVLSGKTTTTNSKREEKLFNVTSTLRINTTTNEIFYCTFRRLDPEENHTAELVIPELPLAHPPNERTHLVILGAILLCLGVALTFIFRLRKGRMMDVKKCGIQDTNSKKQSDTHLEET

[2] = molecular target: human CTLA-4 (human) (UniProt P16410); experiment: flow cytometry, CHO cells expressing huCTLA-4
[3] = molecular target: CD28 (human) (UniProt P10747); experiment: flow cytometry, Jurkat cells (CD28)
[4] = molecular target: PD-L1 (human) (UniProt Q9NZQ7); experiment: flow cytometry, CHO cells stably expressing PD-L1
[5] = molecular target: human CTLA-4 (human) (UniProt P16410); experiment: flow cytometry, CHO cells stably expressing CTLA4
[6] = molecular target: CD28 (human) (UniProt P10747)
[7] = molecular target: CD28 (human) (UniProt P10747); experiment: flow cytometry, Jurkat/IL2 reporter cells (CD28)
[8] = molecular target: CD28 (human) (UniProt P10747); remark: listed apart in the source

Sequence of human CTLA-4 (human) (P16410 36-223): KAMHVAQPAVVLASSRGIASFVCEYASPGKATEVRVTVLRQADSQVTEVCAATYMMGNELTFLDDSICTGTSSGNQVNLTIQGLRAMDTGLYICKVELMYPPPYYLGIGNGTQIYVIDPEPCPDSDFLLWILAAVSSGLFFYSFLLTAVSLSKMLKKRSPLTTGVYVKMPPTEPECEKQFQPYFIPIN
Sequence of wild-type CD80 IgV-Fc (inert), as in Example 12 (Fc fusion) (chain): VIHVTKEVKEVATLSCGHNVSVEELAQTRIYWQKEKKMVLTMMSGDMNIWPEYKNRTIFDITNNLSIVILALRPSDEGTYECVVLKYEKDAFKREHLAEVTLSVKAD

Substance: variant CD80 IgV-Fc D46V/M47L (Fc fusion)
- MFI at 33.3 nM [1]: 3900 MFI
- MFI at 33.3 nM [2]: 49700 MFI

Substance: variant CD80 IgV-Fc E35D/D46V/M47L/V68M (Fc fusion)
- MFI at 33.3 nM [1]: 29300 MFI
- MFI at 33.3 nM [2]: 34300 MFI

Substance: wild-type CD80 ECD-Fc (inert), as in Example 12 (Fc fusion)
- MFI at 33.3 nM [3]: 57.8 MFI
- MFI at 33.3 nM [4]: 161 MFI

Substance: CD80 IgV-Fc E35D/M47I/T62S/L85Q/E88D (Fc fusion)
- MFI at 33.3 nM [5]: 8910 MFI
- MFI at 33.3 nM [4]: 8420 MFI

Substance: WT IgG1 Fc Control
- IL-2 release, primary T cells + K562/OKT3 (No PD-L1), 100 nM [6]: 6260

Substance: variant CD80 IgV-Fc N48K/K89N (Fc fusion)
- MFI at 33.3 nM [2]: 4370 MFI
- MFI at 33.3 nM [7]: 170 MFI

Substance: Wildtype CD80 ECD-Fc (effector Fc, Example 31) (Fc fusion)
- MFI at 66.7 nM [3]: 120
- EC50 [5]: 4 nM
- MFI at 66.7 nM [5]: 25300
- MFI at 66.7 nM [4]: 104

Substance: variant CD80 IgV-Fc E35D/D46V/V68M/L85Q (Fc fusion)
- MFI at 33.3 nM [1]: 23600 MFI
- MFI at 33.3 nM [2]: 32200 MFI

Substance: wild-type CD80 IgV-Fc (inert), as in Example 12 (Fc fusion)
- MFI at 33.3 nM [3]: 102 MFI
- MFI at 33.3 nM [5]: 1380 MFI
- MFI at 33.3 nM [4]: 165 MFI

Substance: variant CD80 IgV-Fc E35D/D46V (Fc fusion)
- MFI at 33.3 nM [1]: 3970 MFI
- MFI at 33.3 nM [2]: 50100 MFI

Substance: CD80 E35D/M43L/L70M IgV-Fc (inert) (Fc fusion)
- Jurkat/IL2 reporter RLU at 50 nM, CHO/OKT3 aAPC without PD-L1 [8]: 515 RLU

Substance: CD80 (A91G/I118V/T120S/T130A) ECD-Fc (Fc fusion)
- MFI at 66.7 nM [3]: 720
- EC50 [5]: 4.3 nM
- MFI at 66.7 nM [5]: 24800
- MFI at 66.7 nM [4]: 107

Substance: variant CD80 IgV-Fc (inert) H18V/A26P/E35D/M47V/V68L/A71G (Fc fusion)
- MFI at 33.3 nM [5]: 13700 MFI
- MFI at 33.3 nM [4]: 55400 MFI

Substance: variant CD80 IgV-Fc K89N (Fc fusion)
- MFI at 33.3 nM [1]: 52.8 MFI
- MFI at 33.3 nM [2]: 944 MFI
- MFI at 33.3 nM [7]: 56.3 MFI

Substance: variant CD80 IgV-Fc M47V/V68M/K89N (Fc fusion)
- MFI at 33.3 nM [1]: 11800 MFI
- MFI at 33.3 nM [2]: 24800 MFI
- MFI at 33.3 nM [7]: 1320 MFI

Substance: CD80 (S21P/L70Q/D90G/I118V/T120S/T130A) ECD-Fc (Fc fusion)
- MFI at 66.7 nM [3]: 282
- EC50 [5]: 8.8 nM
- MFI at 66.7 nM [4]: 103

Substance: CD80 IgV-Fc deltaE10-A98 (Fc fusion)
- MFI at 33.3 nM [3]: 15 MFI
- MFI at 33.3 nM [5]: 125 MFI
- MFI at 33.3 nM [4]: 45 MFI

Substance: variant CD80 IgV-Fc D46V/V68M/L85Q (Fc fusion)
- MFI at 33.3 nM [1]: 4170 MFI
- MFI at 33.3 nM [2]: 7570 MFI

Now from value to substance:

- MFI at 33.3 nM [2]: 24800 MFI
Substance: variant CD80 IgV-Fc E35D/V68M/K89N (Fc fusion)

- MFI at 33.3 nM [5]: 308 MFI
- MFI at 33.3 nM [4]: 12200 MFI
Substance: CD80 IgV-Fc Q33R/M47V/T62N/A71G (Fc fusion)

- MFI at 33.3 nM [1]: 4040 MFI
- MFI at 33.3 nM [2]: 11100 MFI
- MFI at 33.3 nM [7]: 60.9 MFI
Substance: variant CD80 IgV-Fc M47L/V68M/L85Q (Fc fusion)

- MFI at 33.3 nM [3]: 2110 MFI
- MFI at 33.3 nM [4]: 24200 MFI
Substance: CD80 E35D/M47V/N48K/V68M/K89N IgV-Fc, GS(G4S)3 linker (Fc fusion)

- MFI at 66.7 nM [3]: 4050
- EC50 [5]: 3.6 nM
- MFI at 66.7 nM [5]: 26400
- MFI at 66.7 nM [4]: 108
Substance: CD80 (E88D/K89R/D90K/A91G/F92Y/K93R) ECD-Fc (Fc fusion)

- IL-2 release, primary T cells + K562/OKT3 (No PD-L1), 100 nM [6]: 23100
- IL-2 release, primary T cells + K562/OKT3/PD-L1, 100 nM [6]: 8390
Substance: WT CD80 ECD-Fc (effector) (Fc fusion)

- MFI at 33.3 nM [1]: 17400 MFI
- MFI at 33.3 nM [7]: 1530 MFI
Substance: variant CD80 IgV-Fc E35D/N48K/V68M/K89N (Fc fusion)

- MFI at 33.3 nM [1]: 97 MFI
- MFI at 33.3 nM [2]: 3000 MFI
- MFI at 33.3 nM [7]: 35 MFI
Substance: variant CD80 IgV-Fc L85Q (Fc fusion)

- MFI at 33.3 nM [3]: 8190 MFI
- MFI at 33.3 nM [5]: 25400 MFI
- MFI at 33.3 nM [4]: 66200 MFI
Substance: variant CD80 IgV-Fc (inert) H18V/A26G/E35D/M47V/V68M/A71G/D90G (Fc fusion)

- EC50 [5]: 10.5 nM
- MFI at 66.7 nM [5]: 24600
- MFI at 66.7 nM [4]: 287
Substance: CD80 (E35D/D46E/M47V/V68M/D90G/K93E) ECD-Fc (Fc fusion)

- MFI at 33.3 nM [3]: 8190 MFI
- MFI at 33.3 nM [5]: 19800 MFI
Substance: variant CD80 IgV-Fc (inert) A26P/E35D/M47I/V68M/A71G/D90G (Fc fusion)

- MFI at 33.3 nM [3]: 267 MFI
- MFI at 33.3 nM [4]: 22600 MFI
Substance: CD80 E35D/D46V/M47L/V68M/L85Q/E88D IgV-Fc, GS(G4S)3 linker (Fc fusion)

From patent publication US20220177587A1, “METHODS AND USES OF VARIANT CD80 FUSION PROTEINS AND RELATED CONSTRUCTS” (Alpine Immune Sciences, Inc., priority 2018, published 2022)
